In data set [1] the target is T1, rPruR (AraC/XylS family regulator) (Pseudomonas aeruginosa PAK) (UniProt Q9I5F8).
T1 sequence: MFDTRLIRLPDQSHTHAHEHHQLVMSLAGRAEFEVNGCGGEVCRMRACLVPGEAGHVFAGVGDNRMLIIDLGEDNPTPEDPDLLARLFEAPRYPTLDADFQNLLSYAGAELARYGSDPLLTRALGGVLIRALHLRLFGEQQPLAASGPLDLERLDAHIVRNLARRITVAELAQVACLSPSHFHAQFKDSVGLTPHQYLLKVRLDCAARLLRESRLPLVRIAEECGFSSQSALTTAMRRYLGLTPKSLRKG
Nature of the data set: EMSA. The following applies: 50 mM Tris pH 7.9, 50 mM NaCl, 0.5 mM EDTA, 10% glycerol, 1% NP-40, 25 C, 10 min; 50 ng DNA, 2 ug rPruR in 20 ul; 8% native PAGE in TBE on ice (EMSA) …. A general note: In EMSA bound probe runs differently from free probe, usually more slowly.

The target in data set [2] is T2, rPruR (AraC/XylS family regulator) (Pseudomonas aeruginosa PAK, UniProt Q9I5F8 1-250).
T2 sequence: T1 sequence
Description: EMSA; 50 mM Tris pH 7.9, 50 mM NaCl, 0.5 mM EDTA, 10% glycerol, 1% NP-40, 25 C, 10 min; 50 ng DNA, 2 ug rPruR in 20 ul; 8% native PAGE in TBE on ice (EMSA); footprint 300 ng probe, 0.09 U DNase I, 25 C 5 min. The following applies: protein: recombinant; tags: His tag (pET-28a(+)); blunt.

Take “CTTTCCCGTTCCTCTTCGCCGGCAGGCATGCGGACATTGCCGCTGCACGTCGGCACGACGCCATGCAGAGTGGCTACGCGGGTCTACCGACACAAAAAGAAATAATATAACATCCCAATAAATACGCCGAT (double strand) [putA promoter F5]”: the binding result in data set [1] is given as “no binding”.

Consider “CCCTCTCGCAGCCACTACATTCCGCTATCCGCTGGTGCCTCGCGCCGGCGGAATGGGCCTGACCCATACTGATCCGTATTCCCGCGCCACAGGACGTGCCGCGCCGCCGGCACAACCCGCCGGCGGCGGTGCCCCGGGCAATGGACGCCTGGCCGGACTTCTTTCAATAACAATGGCTCCACAAGAGGAGGGCGTG (double strand) [putA promoter F3]”, for which, in data set [1], the binding result is recorded as “no binding”.

B1: putA promoter F6 (dsDNA)
DNA 1: TTCCGCAGCCAGGAGTTTTCCGCAAAAACTCCAGAGTCTTTCGCAAGAATCGC
DNA 2: GCGATTCTTGCGAAAGACTCTGGAGTTTTTGCGGAAAACTCCTGGCTGCGGAA
Regarding B1, the binding result in data set [2] is reported as “binds”.

(Values after PMC5879082, “PutA Is Required for Virulence and Regulated by PruR in Pseudomonas aeruginosa”.)
